According to paper PMC4660213, “Identification and characterization of multiple rubisco activases in chemoautotrophic bacteria” (Nature Communications, 2015):

Legend:
[1] = molecular target: Acidithiobacillus ferrooxidans CbbQ2 (Acidithiobacillus ferrooxidans ATCC 23270) (UniProt B7J5E4); test: SEC + other: glycerol gradient sedimentation; combined Stokes radius/sedimentation analysis: Stokes radius from gel filtration, Svedberg coefficient from 5–30% glycerol gradients in buffer A (1 mg/ml, 35,000 r.p.m., 16 h, 4 °C); M=4,205 (SRs)
[2] = molecular target: Acidithiobacillus ferrooxidans CbbQ2 (Acidithiobacillus ferrooxidans ATCC 23270) (UniProt B7J5E4); test: quantitative densitometry of SDS-PAGE; Coomassie-stained SDS–PAGE of the purified complexes (4 µg per lane), assuming equal binding of the dye
[3] = molecular target: Acidithiobacillus ferrooxidans CbbQ2 (Acidithiobacillus ferrooxidans ATCC 23270) (UniProt B7J5E4)
[4] = molecular target: Acidithiobacillus ferrooxidans form I rubisco (L8S8) (Acidithiobacillus ferrooxidans ATCC 23270) (UniProt B7JA24)
[5] = molecular target: Acidithiobacillus ferrooxidans form II rubisco (Acidithiobacillus ferrooxidans ATCC 23270) (UniProt B7J5E3)
[6] = molecular target: AfM with E75 mutated to alanine (Acidithiobacillus ferrooxidans ATCC 23270)

Q: For “C-terminally truncated CbbO2 (residues 1–444) (domain or fragment)”, which stoichiometry N (CbbO fragment per CbbQ hexamer) [1] is on record?
A: The stoichiometry N (CbbO fragment per CbbQ hexamer) was 1.

Q: What about the stoichiometry N (CbbO fragments per 6 CbbQ subunits) [2] of the same substance?
A: Its stoichiometry N (CbbO fragments per 6 CbbQ subunits) is 3.5.

Q: And the basal ATPase activity of the Q2O2ΔC444 complex (min^−1 protomer CbbQ^−1) [3]?
A: Its basal ATPase activity of the Q2O2ΔC444 complex (min^−1 protomer CbbQ^−1) is under 1.

Q: Which stimulation of Q1O1 ATPase activity (0.27 µM oligomer) by saturating concentrations of stably inhibited AfLS (ER, ECMC) [4] does the source give for “CbbQ1-CbbO1 hetero-oligomer (CbbQ6CbbO1) (complex)” here?
A: Its stimulation of Q1O1 ATPase activity (0.27 µM oligomer) by saturating concentrations of stably inhibited AfLS (ER, ECMC) is 2 fold.

Q: For “CbbQ2-CbbO2 hetero-oligomer (CbbQ6CbbO1) (complex)”, which stimulation of Q2O2 ATPase activity (0.27 µM oligomer) by saturating concentrations of stably inhibited AfM (ER, ECMC) [5] is on record?
A: The stimulation of Q2O2 ATPase activity (0.27 µM oligomer) by saturating concentrations of stably inhibited AfM (ER, ECMC) was 20 fold.

Q: And the rubisco activase activity of Q2O2 on AfM with E75 mutated to alanine [6]?
A: Its rubisco activase activity of Q2O2 on AfM with E75 mutated to alanine is 80 % reduction.
